Several values for one entry are separate records, joined by “and”; a condition that tells them apart may be missing. Identical values can stand only once. Like-named read-outs stand apart in the source and are kept apart here.

The source of these data is patent US20150044237A1 (CENTRE NATIONAL DE LA RECHERCHE SCIENTIFIQUE, published 2015).

The labels stand for the following.
B1: D2FasL (ligand, human)
chain: TPQQLNCETHDLKEIICSWNPGRVTALVGPRATSYTLVESFSGKYVRLKRAEAPTNESYQLLFQMLPNQEIYNFTLNAHNPLGRSQSTILVNITEKVYPHTPTSFKVKDINSTAVKLSWHLPGNFAKINFLCEIEIKKSNSVQEQRNVTIKGVENSSYLVALDKLNPYTLYTFRIRCSTETFWKWSKWSNKKQHLTTEASQKELAELRESTSQMHTASSLEKQIGHPSPPPEKKELRKVAHLTGKSNSRSMPLEWEDTYGIVLLSGVKYKKGGLVINETGLYFVYSKVYFRGQSCNNLPLSHKVYMRNSKYPQDLVMMEGKMMSYCTTGQMWARSSYLGAVFNLTSADHLYVNVSELSLVNFEESQTFFGLYKL
notes: domain: D2
B4: Recombinant Fas-Fc (R&Dsystems) (Fc fusion, UniProt P25445 26-173, looked up)
chain: QVTDINSKGLELRKTVTTVETQNLEGLHHDGQFCHKPCPPGERKARDCTVNGDEPDCVPCQEGKEYTDKAHFSSKCRRCRLCDEGHGLEVEINCTRTQNTKCRCKPNFFCNSTVCEHCDPCTKCEHGIIKECTLTSNTKCKEEGSRSN
notes: not shown: Fc part
B5: D1IgD2FasL (ligand, human)
chain: QKKGAPHDLKCVTNNLQVWNCSWKAPSGTGRGTDYEVCIENRSRSCYQLEKTSIKIPALSHGDYEITINSLHDFGSSTSKFTLNEQNVSLIPDTPEILNLSADFSTSTLYLKWNDRGSVFPHRSNVIWEIKVLRKESMELVKLVTHNTTLNGKDTLHHWSWASDMPLECAIHFVEIRCYIDNLHFSGLEEWSDWSPVKNISWIPDSQTKVFPQDKVILVGSDITFCCVSQEKVLSALIGHTNCPLIHLDGENVAIKIRNISVSASSGTNVVFTTEDNIFGTVIFAGYPPDTPQQLNCETHDLKEIICSWNPGRVTALVGPRATSYTLVESFSGKYVRLKRAEAPTNESYQLLFQMLPNQEIYNFTLNAHNPLGRSQSTILVNITEKVYPHTPTSFKVKDINSTAVKLSWHLPGNFAKINFLCEIEIKKSNSVQEQRNVTIKGVENSSYLVALDKLNPYTLYTFRIRCSTETFWKWSKWSNKKQHLTTEASQKELAELRESTSQMHTASSLEKQIGHPSPPPEKKELRKVAHLTGKSNSRSMPLEWEDTYGIVLLSGVKYKKGGLVINETGLYFVYSKVYFRGQSCNNLPLSHKVYMRNSKYPQDLVMMEGKMMSYCTTGQMWARSSYLGAVFNLTSADHLYVNVSELSLVNFEESQTFFGLYKL

For one experiment, the target named is HLA-pfFasL (human). In words: cell-based or functional assay.
Experiment [1] concerns the target T1, Fas (CD95/APO-1) on Jurkat cells (human, UniProt P25445 26-335).
T1 sequence (looked up): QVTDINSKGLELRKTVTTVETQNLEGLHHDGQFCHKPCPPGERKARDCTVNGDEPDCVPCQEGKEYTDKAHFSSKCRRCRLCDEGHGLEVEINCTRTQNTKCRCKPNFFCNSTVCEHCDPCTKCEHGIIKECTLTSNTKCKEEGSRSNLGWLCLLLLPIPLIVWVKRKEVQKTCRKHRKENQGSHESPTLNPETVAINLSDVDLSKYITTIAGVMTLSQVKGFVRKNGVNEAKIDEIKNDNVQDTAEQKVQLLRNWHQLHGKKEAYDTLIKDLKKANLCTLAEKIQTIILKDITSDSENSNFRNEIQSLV
Kind of experiment: cell-based or functional assay.

Experiment [2] addresses B4. In words: SPR (BIAcore), Fas-Fc immobilised on chip, FasL construct as analyte; reference cFasL. The procedure:
(§1) The experiments were carried out on a BIAcore 3000 optical biosensor (GE healthcare, Chalfont, UK). The FasL chimeras were produced as COS supernatants in Opti-MEM medium, concentrated 100 times, dialyzed against PBS and sterilized by filtration. Recombinant Fas-Fc (R&Dsystems, Minneapolis, Minn.) was covalently coupled to a carboxymethyl dextran flow cell (CM5, BIAcore) following the manufacturer's recommendations. The level of immobilization was 2,000 resonance units (RU). Binding of the FasL chimeras was assayed at concentrations ranging from 0.2 to 100 nM for IgFasL, 0.2 to 44 nM for cFasL, 0.2 to 37.5 nM for D2FasL, and 0.25 to 8 nM for D1IgD2FasL, in Hepes-buffered saline, at a 30 μl/min flow rate. Association was monitored for 5 min before initiating the dissociation phase for another 11 min with Hepes-buffered saline. The flow cell was regenerated with 4M MgCl2. The sensorgrams were analyzed using the BIAeval 4.1 software (BIAcore). The background of the Opti-MEM medium was at 30 RU.
(§2) The affinity of the FasL chimeras for Fas was measured using the surface plasmon resonance Biacore® method, against recombinant Fas-Fc immobilized on a chip. IgFasL, D2FasL, D1IgD2FasL and sFasL as a control, were produced as supernatants in COS cells cultured in serum-free medium, concentrated 100 times, and dialysed against PBS.

The target in experiment [3] is T1, Fas (CD95/APO-1) on Jurkat cells. In words: cell-based or functional assay. The source holds these as a separate data set.
Experiment [4] concerns the target B4. In words: SPR (BIAcore 3000), Fas-Fc immobilised on CM5 chip. The procedure: as §1, §2
Background: SPR reads the build-up and loss of mass on a sensor chip optically.

In experiment [5] the target is T1, Fas (CD95/APO-1) on Jurkat cells. In words: cell-based or functional assay. The source holds these as a separate data set.
Experiment [6] has as its target B4. Kind of experiment: SPR (BIAcore 3000), Fas-Fc immobilised on CM5 chip, FasL construct as analyte. The protocol:
as §1, §2

The experiment “D2FasL” has as its target B1. The experiment is described as above. The procedure:
as §1, §2

For the experiment “D1IgD2FasL”, the target named is B5. The experiment is described as above. The procedure: as §1, §2
In another experiment the target is T2, cleaved FasL (cFasL) (human, UniProt P48023 127-281).
T2 construct: range 127-281; Supernatant of COS cells transfected with wild-type FasL; also called spontaneously cleaved membrane FasL; metalloprotease-cleaved FasL
T2 sequence (looked up): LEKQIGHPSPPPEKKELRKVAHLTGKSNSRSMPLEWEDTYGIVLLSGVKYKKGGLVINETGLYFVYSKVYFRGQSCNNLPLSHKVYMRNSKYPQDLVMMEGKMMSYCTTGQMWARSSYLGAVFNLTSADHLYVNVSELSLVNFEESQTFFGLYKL
The description is as above. The procedure: as §1, §2

Turning to “anti-β2 microglobulin mAb (clone B2M-01) (antibody)”, the enhancement of the cytotoxicity of HLA-pfFasL on CD32+ L-cells by pre-formed immune complexes in the experiment with HLA-pfFasL (human) is 2.5 fold.

In experiment [1], “Anti-human Fas agonistic mAb 7C11 (IgM) (antibody)” returned a concentration required to kill 50% of the Jurkat cells of 2 ng/mL.

As to “Flag-tagged sFasL (sfFasL) (from UniProt P48023 108-281) (ligand)”, in [1], the cytotoxicity EC50 on the Jurkat cell line (MTT assay) is > 3 µg/mL and the cytotoxicity on Jurkat cells, activity against pfFasL (fold less active than pfFasL) is > 5000.

Consider anti-Flag mAb (clone M2) (antibody), for which the enhancement of the cytotoxicity of HLA-pfFasL on CD32+ L-cells by pre-formed immune complexes in the experiment with HLA-pfFasL (human) stood at 2.5 fold.

For the molecule B1, the “fold affinity against cFasL (Kd ratio)” value in [2] was 2 fold. Also, the “cell death of Jurkat cells (MTT assay), potency against IgFasL” value in [3] is 12.5 fold less potent than IgFasL. Moreover, in experiment [4], the “fold difference of Kd against cFasL” value turned out to be 2 fold.

B2: polymeric Flag-tagged soluble FasL (pfFasL) (ligand, not shown: small tags and cut ends)
chain: IPDSQTKVFPQDKVILVGSDITFCCVSQEKVLSALIGHTNCPLIHLDGENVAIKIRNISVSASSGTNVVFTTEDNIFGTVISRALQKELAELRESTSQMHTASSLEKQIGHPSPPPEKKELRKVAHLTGKSNSRSMPLEWEDTYGIVLLSGVKYKKGGLVINETGLYFVYSKVYFRGQSCNNLPLSHKVYMRNSKYPQDLVMMEGKMMSYCTTGQMWARSSYLGAVFNLTSADHLYVNVSELSLVNFEESQTFFGLYKL
In the case of B2, the “cytotoxicity EC50 on the Jurkat cell line (MTT assay)” value in [5] was 0.6 ng/mL and 15.5 pM.

B3: IgFasL (ligand)
chain: IPDSQTKVFPQDKVILVGSDITFCCVSQEKVLSALIGHTNCPLIHLDGENVAIKIRNISVSASSGTNVVFTTEDNIFGTVISRALQKELAELRESTSQMHTASSLEKQIGHPSPPPEKKELRKVAHLTGKSNSRSMPLEWEDTYGIVLLSGVKYKKGGLVINETGLYFVYSKVYFRGQSCNNLPLSHKVYMRNSKYPQDLVMMEGKMMSYCTTGQMWARSSYLGAVFNLTSADHLYVNVSELSLVNFEESQTFFGLYKL
notes: also called pFasL; polymeric FasL
By Kd is commonly meant the constant that tells how readily two partners part at equilibrium. Broadly, the koff is the rate constant with which the complex falls apart. The kon is the second-order rate constant of association. For B3, in experiment [2], the “fold affinity against cFasL (Kd ratio)” value turned out to be 6 fold. Besides, the “fold difference of Kd against cFasL” value in experiment [4] is 6 fold. In experiment [6], the Kd is 11.6 nM, the koff was 0.00041 s⁻¹ and the kon turned out to be 25000 M⁻¹ s⁻¹.

B4: in the experiment with D2FasL, the Kd is 38.5 nM, the koff was determined as 0.006 s⁻¹ and the kon came to 160000 M⁻¹ s⁻¹. Also, in the experiment with D1IgD2FasL, the Kd was 25.6 nM, the off-rate (koff) stood at 0.0033 s⁻¹ and the kon is 130000 M⁻¹ s⁻¹. In the experiment with cleaved FasL (cFasL), this molecule showed an equilibrium dissociation constant (Kd) of 69.4 nM, a koff of 0.0059 s⁻¹ and a kon of 84000 M⁻¹ s⁻¹.

Regarding B5, the “cell death of Jurkat cells (MTT assay), potency against IgFasL” value in experiment [3] was 125 fold less potent than IgFasL.

B6: soluble FasL (sFasL) (ligand)
chain: QKELAELRESTSQMHTASSLEKQIGHPSPPPEKKELRKVAHLTGKSNSRSMPLEWEDTYGIVLLSGVKYKKGGLVINETGLYFVYSKVYFRGQSCNNLPLSHKVYMRNSKYPQDLVMMEGKMMSYCTTGQMWARSSYLGAVFNLTSADHLYVNVSELSLVNFEESQTFFGLYKL
Turning to B6, the “cytotoxicity EC50 on the Jurkat cell line (MTT assay)” value in experiment [5] is > 3 µg/mL. Also, the “cytotoxicity on Jurkat cells, activity against pfFasL” value in [3] was ≥ 5000 fold less active than pfFasL.
